Measured values taken from paper PMC7808953 (Redox Biology, 2020).

Biological target: the molecule itself
Assay: native gel or EMSA

B1: hypochlorite-treated α2-macroglobulin (natural protein)
chain: SVSGKPQYMVLVPSLLHTETTEKGCVLLSYLNETVTVSASLESVRGNRSLFTDLEAENDVLHCVAFAVPKSSSNEEVMFLTVQVKGPTQEFKKRTTVMVKNEDSLVFVQTDKSIYKPGQTVKFRVVSMDENFHPLNELIPLVYIQDPKGNRIAQWQSFQLEGGLKQFSFPLSSEPFQGSYKVVVQKKSGGRTEHPFTVEEFVLPKFEVQVTVPKIITILEEEMNVSVCGLYTYGKPVPGHVTVSICRKYSDASDCHGEDSQAFCEKFSGQLNSHGCFYQQVKTKVFQLKRKEYEMKLHTEAQIQEEGTVVELTGRQSSEITRTITKLSFVKVDSHFRQGIPFFGQVRLVDGKGVPIPNKVIFIRGNEANYYSNATTDEHGLVQFSINTTNVMGTSLTVRVNYKDRSPCYGYQWVSEEHEEAHHTAYLVFSPSKSFVHLEPMSHELPCGHTQTVQAHYILNGGTLLGLKKLSFYYLIMAKGGIVRTGTHGLLVKQEDMKGHFSISIPVKSDIAPVARLLIYAVLPTGDVIGDSAKYDVENCLANKVDLSFSPSQSLPASHAHLRVTAAPQSVCALRAVDQSVLLMKPDAELSASSVYNLLPEKDLTGFPGPLNDQDNEDCINRHNVYINGITYTPVSSTNEKDMYSFLEDMGLKAFTNSKIRKPKMCPQLQQYEMHGPEGLRVGFYESDVMGRGHARLVHVEEPHTETVRKYFPETWIWDLVVVNSAGVAEVGVTVPDTITEWKAGAFCLSEDAGLGISSTASLRAFQPFFVELTMPYSVIRGEAFTLKATVLNYLPKCIRVSVQLEASPAFLAVPVEKEQAPHCICANGRQTVSWAVTPKSLGNVNFTVSAEALESQELCGTEVPSVPEHGRKDTVIKPLLVEPEGLEKETTFNSLLCPSGGEVSEELSLKLPPNVVEESARASVSVLGDILGSAMQNTQNLLQMPYGCGEQNMVLFAPNIYVLDYLNETQQLTPEIKSKAIGYLNTGYQRQLNYKHYDGSYSTFGERYGRNQGNTWLTAFVLKTFAQARAYIFIDEAHITQALIWLSQRQKDNGCFRSSGSLLNNAIKGGVEDEVTLSAYITIALLEIPLTVTHPVVRNALFCLESAWKTAQEGDHGSHVYTKALLAYAFALAGNQDKRKEVLKSLNEEAVKKDNSVHWERPQKPKAPVGHFYEPQAPSAEVEMTSYVLLAYLTAQPAPTSEDLTSATNIVKWITKQQNAQGGFSSTQDTVVALHALSKYGAATFTRTGKAAQVTIQSSGTFSSKFQVDNNNRLLLQQVSLPELPGEYSMKVTGEGCVYLQTSLKYNILPEKEEFPFALGVQTLPQTCDEPKAHTSFQISLSVSYTGSRSASNMAIVDVKMVSGFIPLKPTVKMLERSNHVSRTEVSSNHVLIYLDKVSNQTLSLFFTVLQDVPVRDLKPAIVKVYDYYETDEFAIAEYNAPCSKDLGNA
modifications: modified by hypochlorite (NaOCl); residues not given
With B1 the “stoichiometry N” value was 2.
